In patent publication US20090105152A1:
Each block holds one binder with its values, some of them ahead of it. Numbered stars: 1 amine (or outer) side, 2 acyl side, 3 side chain; on linkers, the order of the positions; unused ones are H or OH. Square brackets hold non-standard residues; d marks the D form. Phe(3R-OH) = O=C([C@@H](N[*:1])[C@H](O[*:3])c1ccccc1)[*:2]; Phe(4-Me) = Cc1ccc(C[C@H](N)C(=O)O)cc1; Arg(Me) = CNC(=N)NCCC[C@H](N)C(=O)O; Hyp = O=C(O)[C@@H]1C[C@@H](O)CN1; azaGly = NNC(=O)O

Biological target: human OT7T175 (metastin receptor) (human) (UniProt Q969F8)
Test: cell-based or functional assay

Sequence of human OT7T175 (metastin receptor) (human) (Q969F8 whole entry L364H): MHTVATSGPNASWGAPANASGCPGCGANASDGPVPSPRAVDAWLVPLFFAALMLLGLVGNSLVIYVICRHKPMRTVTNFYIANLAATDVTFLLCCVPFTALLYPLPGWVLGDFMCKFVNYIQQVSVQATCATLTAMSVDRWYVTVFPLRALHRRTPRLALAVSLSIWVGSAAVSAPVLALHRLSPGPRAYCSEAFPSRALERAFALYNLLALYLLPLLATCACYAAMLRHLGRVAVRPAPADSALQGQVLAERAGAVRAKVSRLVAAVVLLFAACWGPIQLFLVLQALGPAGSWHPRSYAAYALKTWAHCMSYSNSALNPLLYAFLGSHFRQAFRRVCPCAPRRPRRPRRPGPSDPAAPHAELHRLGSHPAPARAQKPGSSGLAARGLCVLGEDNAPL

intracellular Ca ion level-increasing activity [specific activity to Metastin (1-54)] (relative to Metastin (1-54)): 1
B1: des(1)-Ac-[D-Tyr2,Hyp3,Thr5,threo-Ser(3Phenyl)6,AzaGly7,Arg(Me)9,Trp10]MS10 (peptide)
peptide: Ac-[dY][Hyp]NT[Phe(3R-OH)][azaGly]L[Arg(Me)]W-NH2
SMILES: CNC(=N)NCCC[C@H](NC(=O)[C@H](CC(C)C)NC(=O)NNC(=O)[C@@H](NC(=O)[C@@H](NC(=O)[C@H](CC(N)=O)NC(=O)[C@@H]1C[C@@H](O)CN1C(=O)[C@@H](Cc1ccc(O)cc1)NC(C)=O)[C@@H](C)O)[C@H](O)c1ccccc1)C(=O)N[C@@H](Cc1c[nH]c2ccccc12)C(N)=O

intracellular Ca ion level-increasing activity [specific activity to Metastin (1-54)] (relative to Metastin (1-54)): 0.8
B2: des(1)-Ac-[D-Tyr2,Hyp3,Thr5,Phe(4Me)6,AzaGly7,Arg(Me)9,Trp10]MS10 (peptide)
peptide: Ac-[dY][Hyp]NT[Phe(4-Me)][azaGly]L[Arg(Me)]W-NH2
SMILES: CNC(=N)NCCC[C@H](NC(=O)[C@H](CC(C)C)NC(=O)NNC(=O)[C@H](Cc1ccc(C)cc1)NC(=O)[C@@H](NC(=O)[C@H](CC(N)=O)NC(=O)[C@@H]1C[C@@H](O)CN1C(=O)[C@@H](Cc1ccc(O)cc1)NC(C)=O)[C@@H](C)O)C(=O)N[C@@H](Cc1c[nH]c2ccccc12)C(N)=O
